The values that follow come from the supplement of paper PMC5998384.

In data set [1] the test system is HeLa Kyoto. As to the kind of experiment: solubility in G1/S (NP-40 vs SDS abundance) (log2 ratio); higher = more soluble. Conditions: cell cycle stage: G1/S.
In data set [2] the test system is HeLa Kyoto. Put plainly: melting temperature (median over replicates), in situ; higher = more thermally stable.
Data set [3] concerns HeLa Kyoto. As to the kind of experiment: solubility change mitosis vs G1/S (difference of NP-40 vs SDS log2 ratios) (log2 ratio difference); higher = more soluble in mitosis.
Data set [4] concerns HeLa Kyoto. Put plainly: thermal stability score vs G1/S (z-score of summed log2 fold changes over temperatures); higher = more thermally stable than in G1/S.
The mark [5] stands for this setting: cell cycle stage: early G1 (4.5 h after nocodazole release).
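Throughout, for melting temperature (median over replicates), in situ: HeLa Kyoto cells synchronized by double thymidine or nocodazole block, proteins quantified by TMT10plex mass spectrometry, three independent biological replicates.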
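Throughout, for solubility change mitosis vs G1/S (difference of NP-40 vs SDS log2 ratios): synchronized HeLa Kyoto cells (double thymidine block for G1/S, nocodazole release for mitosis), protein amounts in NP-40 versus SDS lysates quantified by mass spectrometry, three biological replicates.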
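Throughout, for solubility in G1/S (NP-40 vs SDS abundance): HeLa Kyoto cells arrested at G1/S by double thymidine block, proteins quantified by TMT10plex mass spectrometry in mild NP-40 versus SDS extracts, three biological replicates.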
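Throughout, for thermal stability score vs G1/S (z-score of summed log2 fold changes over temperatures): synchronized HeLa Kyoto cells, proteins quantified by TMT10plex mass spectrometry, three biological replicates, mitosis taken 0.5 h after nocodazole release, G1/S directly after double thymidine block.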

In the case of “MSRGPEEVNRLTESTYRNVMEQFNPGLRNLINLGKNYEKAVNAMILAGKAYYDGVAKIGEIATGSPVSTELGHVLIEISSTHKKLNESLDENFKKFHKEIIHELEKKIELDVKYMNATLKRYQTEHKNKLESLEKSQAELKKIRRKSQGSRNALKYEHKEIEYVETVTSRQSEIQKFIADGCKEALLEEKRRFCFLVDKHCGFANHIHYYHLQSAELLNSKLPRWQETCVDAIKVPEKIMNMIEEIKTPASTPVSGTPQASPMIERSNVVRKDYDTLSKCSPKMPPAPSGRAYTSPLIDMFNNPATAAPNSQRVNNSTGTSEDPSLQRSVSVATGLNMMKKQKVKTIFPHTAGSNKTLLSFAQGDVITLLIPEEKDGWLYGEHDVSKARGWFPSSYTKLLEENETEAVTVPTPSPTPVRSISTVNLSENSSVVIPPPDYLECLSMGAAADRRADSARTTSTFKAPASKPETAAPNDANGTAKPPFLSGENPFATVKLRPTVTNDRSAPIIR [BAIAP2L1]”, the “solubility in G1/S (log2)” value in the data set on HeLa Kyoto [1] was found to be 0.326. In addition, the results for the melting temperature in the data set with HeLa Kyoto [2] (cell cycle stage: G1/S) and in the data set with HeLa Kyoto [2] (cell cycle stage: mitosis) were 52.7 °C and 54.1 °C, respectively. Besides, the “solubility change mitosis (log2)” value in the data set with HeLa Kyoto [3] is -0.0797. In addition, the thermal stability score in the data set on HeLa Kyoto [4] (setting [5]) was 1.74; in the data set on HeLa Kyoto [4] (cell cycle stage: mitosis), 1.36.

Take “MAALGVAEAVAAPHPAEGAETAEAVELSRALSRLLPGLEADSKPGRRRALEALRRALEEPGPAADPTAFQGPWARLLLPRLLRCLSDPAEGCRALAVHLLDLGLRRAARPRDALPRLLPALAARLAGPVPARRPPEACEELRLALVQLLGLAVDLCGAALAPHLDDALRALRCSLLDPFAAVRRESCSCAAALAQATPDHFHMQSESLIGPLMQTISHQHWKVRVAAIEATGAVIHFGNGKSVDDVLSHFAQRLFDDVPQVRRAVASVVGGWLLCLRDRYSFFHKLIPLLLSSLNDEVPEVRQLAASLWEDVGLQWQKENEEDLKDKLDFAPPTPPHYPPHERRPVLGCRELVFRNLSKILPALCHDITDWVVGTRVKSAQLLPVLLLHAEDHATQHLEVVLRTLFQACTDEEAAVVQSCTRSAELVGTFVSPEVFLKLILSTLKKTPSASGLLVLASAMRGCPREALQPHLAAIATELAQAHICQASENDLYLERLLLCVQALVSVCHEDCGVASLQLLDVLLTIVALAGATGLRDKAQETMDSLAMVEGVSSCQDLYRKHIGPLLERVTASHLDWTAHSPELLQFSVIVAQSGPALGEALPHVVPTLRACLQPSQDPQMRLKLFSILSTVLLRATDTINSQGQFPSYLETVTKDILAPNLQWHAGRTAAAIRTAAVSCLWALTSSEVLSAEQIRDVQETLMPQVLTTLEEDSKMTRLISCRIINTFLKTSGGMTDPEKLIRIYPELLKRLDDVSNDVRMAAASTLVTWLQCVKGANAKSYYQSSVQYLYRELLVHLDDPERAIQDAILEVLKEGSGLFPDLLVRETEAVIHKHRSATYCEQLLQHVQAVPATQ [DNAAF5]”: the “solubility in G1/S (log2)” value in the data set on HeLa Kyoto [1] amounted to 0.0447. In addition, the melting temperature is 48.1 °C with HeLa Kyoto [2] (cell cycle stage: G1/S) and 48 °C in the data set with HeLa Kyoto [2] (cell cycle stage: mitosis). Besides, the “solubility change mitosis (log2)” value with HeLa Kyoto [3] is -0.172. For the same sequence, the thermal stability score in the data set on HeLa Kyoto [4] (setting [5]) is 0.695; in the data set on HeLa Kyoto [4] (cell cycle stage: mitosis) it was 2.82.

As to “MAAAGVVSGKIIYEQEGVYIHSSCGKTNDQDGLISGILRVLEKDAEVIVDWRPLDDALDSSSILYARKDSSSVVEWTQAPKERGHRGSEHLNSYEAEWDMVNTVSFKRKPHTNGDAPSHRNGKSKWSFLFSLTDLKSIKQNKEGMGWSYLVFCLKDDVVLPALHFHQGDSKLLIESLEKYVVLCESPQDKRTLLVNCQNKSLSQSFENLLDEPAYGLIQAGLLDRRKLLWAIHHWKKIKKDPYTATMIGFSKVTNYIFDSLRGSDPSTHQRPPSEMADFLSDAIPGLKINQQEEPGFEVITRIDLGERPVVQRREPVSLEEWTKNIDSEGRILNVDNMKQMIFRGGLSHALRKQAWKFLLGYFPWDSTKEERTQLQKQKTDEYFRMKLQWKSISQEQEKRNSRLRDYRSLIEKDVNRTDRTNKFYEGQDNPGLILLHDILMTYCMYDFDLGYVQGMSDLLSPLLYVMENEVDAFWCFASYMDQMHQNFEEQMQGMKTQLIQLSTLLRLLDSGFCSYLESQDSGYLYFCFRWLLIRFKREFSFLDILRLWEVMWTELPCTNFHLLLCCAILESEKQQIMEKHYGFNEILKHINELSMKIDVEDILCKAEAISLQMVKCKELPQAVCEILGLQGSEVTTPDSDVGEDENVVMTPCPTSAFQSNALPTLSASGARNDSPTQIPVSSDVCRLTPA [TBC1D15]”, in the data set with HeLa Kyoto [1], the “solubility in G1/S (log2)” value is -0.164. In addition, the melting temperature with HeLa Kyoto [2] (cell cycle stage: G1/S) came to 49.7 °C; with HeLa Kyoto [2] (cell cycle stage: mitosis), 50.2 °C. Besides, in the data set on HeLa Kyoto [3], the “solubility change mitosis (log2)” value is -0.17. Further, the figures for the thermal stability score in the data set on HeLa Kyoto [4] (setting [5]) and in the data set with HeLa Kyoto [4] (cell cycle stage: mitosis) were -0.47 and 0.539, respectively.
